Source: patent publication US20230174642A1, “AFFINITY-MATURATED ANTI-ASIC1a ANTIBODIES” (SHANGHAITECH UNIVERSITY, priority 2019, published 2023)

B1: ASC06-03-IgG1 (antibody, V domains shown)
VH: QVQLQQSGGGLVQPGGSLRLSCAASGFTFSSYAMSWVRQAPGKGLEWVSAISGSGGSTYYADSVKGRFTISRDNSKNTLYLQMNSLRAEDTAVYYCAKDSFYGRAKGSWGQGTLVTVSS
VL: QSALTQPASVSGSPGQSITISCTGTSSDVGAYNYVSWYQQQPGKAPKLMIYGVSNRPSGVSNRFSGSKSGNAASLTISGLQAEDEADYYCSSYTSSSTYVFGTGTKLTVLG
notes: Full length IgG1
B2: ASC06-02-IgG1 (antibody, V domains shown)
VH: QVQLQQSGGGLVQPGGSLRLSCAASGFTFSSYAMSWVRQAPGKGLEWVSAISGSGGSTYYADSVKGRFTISRDNSKNTLYLQMNSLRAEDTAVYYCAKDSFFGRAKGSWGQGTLVTVSS
VL: QSALTQPASVSGSPGQSITISCTGTSSDVGAYNYVSWYQQQPGKAPKLMIYGVSNRPSGVSNRFSGSKSGNAASLTISGLQAEDEADYYCSSYTSSSTYVFGTGTKLTVLG
notes: Full length IgG1
B3: ASC06-01-IgG1 (antibody, V domains shown)
VH: QVQLQQSGGGLVQPGGSLRLSCAASGFTFSSYAMSWVRQAPGKGLEWVSAISGSGGSTYYADSVKGRFTISRDNSKNTLYLQMNSLRAEDTAVYYCAKDSYFGYSKGDWGQGTLVTVSS
VL: QSALTQPASVSGSPGQSITISCTGTSSDVGAYNYVSWYQQQPGKAPKLMIYGVSNRPSGVSNRFSGSKSGNAASLTISGLQAEDEADYYCSSYTSSSTYVFGTGTKLTVLG
notes: Full length IgG1
B4: ASC06-IgG1 (antibody, V domains shown)
VH: QVQLQQSGGGLVQPGGSLRLSCAASGFTFSSYAMSWVRQAPGKGLEWVSAISGSGGSTYYADSVKGRFTISRDNSKNTLYLQMNSLRAEDTAVYYCAKDSFYGYSKGDWGQGTLVTVSS
VL: QSALTQPASVSGSPGQSITISCTGTSSDVGAYNYVSWYQQQPGKAPKLMIYGVSNRPSGVSNRFSGSKSGNAASLTISGLQAEDEADYYCSSYTSSSTYVFGTGTKLTVLG
notes: Tested as full length IgG1; also called WT antibody ASC06-IgG1; parental ASC06-IgG1 antibody
B5: ASC06-04-IgG1 (antibody, V domains shown)
VH: QVQLQQSGGGLVQPGGSLRLSCAASGFTFSSYAMSWVRQAPGKGLEWVSAISGSGGSTYYADSVKGRFTISRDNSKNTLYLQMNSLRAEDTAVYYCAKDSFYGRAKGVWGQGTLVTVSS
VL: QSALTQPASVSGSPGQSITISCTGTSSDVGAYNYVSWYQQQPGKAPKLMIYGVSNRPSGVSNRFSGSKSGNAASLTISGLQAEDEADYYCSSYTSSSTYVFGTGTKLTVLG
notes: Full length IgG1

Legend:
Assay in all cases: FACS on transiently transfected CHO-K1 cells
[1] = molecular target: T1, rat ASIC1a-eYFP (rASIC1a-eYFP) on transiently transfected CHO-K1 cells (rat, UniProt P55926 1-526)
T1 construct: whole, on cells; not shown: eYFP fusion partner
T1 sequence (looked up): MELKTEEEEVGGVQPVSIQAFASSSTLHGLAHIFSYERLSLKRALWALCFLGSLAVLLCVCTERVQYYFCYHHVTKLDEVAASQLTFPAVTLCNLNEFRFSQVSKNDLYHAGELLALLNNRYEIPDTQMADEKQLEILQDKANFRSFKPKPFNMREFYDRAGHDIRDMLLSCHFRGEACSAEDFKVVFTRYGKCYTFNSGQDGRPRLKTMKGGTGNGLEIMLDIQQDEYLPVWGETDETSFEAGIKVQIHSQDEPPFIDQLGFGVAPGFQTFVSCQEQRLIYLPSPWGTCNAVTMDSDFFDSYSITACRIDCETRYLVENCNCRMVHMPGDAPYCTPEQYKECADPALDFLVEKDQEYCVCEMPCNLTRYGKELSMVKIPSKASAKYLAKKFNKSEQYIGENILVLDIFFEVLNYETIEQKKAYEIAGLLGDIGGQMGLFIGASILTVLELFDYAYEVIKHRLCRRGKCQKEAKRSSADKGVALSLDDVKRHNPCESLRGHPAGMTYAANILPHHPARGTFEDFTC
Procedure: (§1) To investigate the species selectivity of ASC06-IgG1 affinity-matured antibodies, plasmids encoding fusion proteins of eYFP with […] homologs of ASIC1a were constructed. These plasmids included those encoding human ASIC1a (hASIC1a-eYFP), mouse ASIC1a (mASIC1a-eYFP), and rat ASIC1a (rASIC1a-eYFP). CHO-K1 cells were transiently transfected with the ASIC1a-eYFP plasmids, and a fluorescence activated cell sorting (FACS)-based binding assay was carried out to determine binding to the homologs or isoforms of ASIC1a expressed on the cell surface. An isotype control was used as a negative control for binding (NC). ASC06-IgG1 was used as a positive control. Summarily, the CHO-K1 cells expressing the ASIC1a-eYFP (green) homologs were stained with the indicated antibody (red) and subjected to FACS.
(§2) To examine the ASIC isotype selectivity of ASC06-IgG1 affinity-matured antibodies, plasmids encoding fusion proteins of eYFP with isoforms of […] were constructed. These plasmids included those encoding human ASIC1b (hASIC1b-eYFP), human ASIC2a (hASIC2a-eYFP), and human ASIC3a (hASIC3a-eYFP). CHO-K1 cells were transiently transfected with these plasmids and used in a FACS-based binding assay disclosed herein. Binding of ASC06-IgG1 to CHO-K1 cells expressing human ASIC1a-eYFP (hASIC1a-eYFP) was used as a positive control (data not shown and FIG. 2), and an isotype control was used as a negative control for binding (NC).

[2] = molecular target: T2, human ASIC2a-eYFP (hASIC2a-eYFP) on transiently transfected CHO-K1 cells (human, UniProt Q16515 1-512)
T2 construct: whole, on cells; not shown: eYFP fusion partner
T2 sequence (looked up): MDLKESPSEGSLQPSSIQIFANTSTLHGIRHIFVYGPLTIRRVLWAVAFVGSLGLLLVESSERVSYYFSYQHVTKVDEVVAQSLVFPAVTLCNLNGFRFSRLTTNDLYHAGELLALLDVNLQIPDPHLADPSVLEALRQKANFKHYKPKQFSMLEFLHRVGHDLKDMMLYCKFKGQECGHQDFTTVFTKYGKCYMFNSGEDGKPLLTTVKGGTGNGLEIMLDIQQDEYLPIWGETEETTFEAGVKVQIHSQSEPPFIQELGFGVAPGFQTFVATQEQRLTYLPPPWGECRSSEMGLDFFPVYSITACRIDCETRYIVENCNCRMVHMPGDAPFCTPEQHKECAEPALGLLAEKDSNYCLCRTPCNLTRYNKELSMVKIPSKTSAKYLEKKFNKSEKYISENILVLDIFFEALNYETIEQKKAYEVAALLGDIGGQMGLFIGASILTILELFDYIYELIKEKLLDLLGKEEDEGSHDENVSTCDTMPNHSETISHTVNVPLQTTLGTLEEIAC
Procedure: as §1, §2

[3] = molecular target: T3, human ASIC3a-eYFP (hASIC3a-eYFP) on transiently transfected CHO-K1 cells (human, UniProt Q9UHC3 1-531)
T3 construct: whole, on cells; not shown: eYFP fusion partner
T3 sequence (looked up): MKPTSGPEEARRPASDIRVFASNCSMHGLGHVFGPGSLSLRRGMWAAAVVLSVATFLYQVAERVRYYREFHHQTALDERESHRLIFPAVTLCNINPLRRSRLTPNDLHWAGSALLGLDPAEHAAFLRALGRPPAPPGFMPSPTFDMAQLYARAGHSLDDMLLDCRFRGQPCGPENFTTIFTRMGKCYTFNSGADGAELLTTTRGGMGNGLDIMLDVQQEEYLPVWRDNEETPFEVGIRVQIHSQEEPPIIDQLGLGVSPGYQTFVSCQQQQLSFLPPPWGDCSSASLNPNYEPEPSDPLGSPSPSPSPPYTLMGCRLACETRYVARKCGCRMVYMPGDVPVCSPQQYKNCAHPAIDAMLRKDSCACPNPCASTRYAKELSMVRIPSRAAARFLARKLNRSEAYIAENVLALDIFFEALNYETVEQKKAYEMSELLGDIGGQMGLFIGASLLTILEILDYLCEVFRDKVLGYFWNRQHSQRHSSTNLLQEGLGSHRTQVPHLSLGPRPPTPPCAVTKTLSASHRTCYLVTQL
Procedure: as §1, §2

[4] = molecular target: T4, mouse ASIC1a-eYFP (mASIC1a-eYFP) on transiently transfected CHO-K1 cells (mouse, UniProt Q6NXK8 1-526)
T4 construct: whole, on cells; not shown: eYFP fusion partner
T4 sequence (looked up): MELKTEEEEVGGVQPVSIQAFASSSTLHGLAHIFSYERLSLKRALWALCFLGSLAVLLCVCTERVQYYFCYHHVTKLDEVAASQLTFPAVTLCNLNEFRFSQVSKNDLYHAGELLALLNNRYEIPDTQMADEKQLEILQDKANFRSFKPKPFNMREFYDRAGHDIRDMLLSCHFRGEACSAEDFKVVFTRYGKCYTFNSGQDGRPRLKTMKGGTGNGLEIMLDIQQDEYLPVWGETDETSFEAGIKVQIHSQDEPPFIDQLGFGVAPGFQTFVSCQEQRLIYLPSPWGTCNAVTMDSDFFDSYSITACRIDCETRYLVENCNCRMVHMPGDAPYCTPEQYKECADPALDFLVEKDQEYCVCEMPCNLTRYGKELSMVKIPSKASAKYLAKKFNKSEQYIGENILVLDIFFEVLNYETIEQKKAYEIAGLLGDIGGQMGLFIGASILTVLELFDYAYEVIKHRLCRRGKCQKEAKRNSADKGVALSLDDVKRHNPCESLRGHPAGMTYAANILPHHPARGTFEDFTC
Procedure: as §1, §2

Binder | binding result [1] | binding result [2] | binding result [3] | binding result [4]
B1 | binds | no binding | no binding | binds
B2 | binds | no binding | no binding | binds
B3 | binds | no binding | no binding | binds
B4 | binds | no binding | no binding | binds
B5 | binds | no binding | no binding | binds
